Results as given in patent US20030113743.

Tests used:
[1] = system: synthetic peptide, residues 210-236 of hK2 (peptide #1 of FIG. 16)
[2] = system: phK2^v217 (pro form of hK2 with valine at residue 217)
[3] = system: peptide #3 of FIG. 16, amino acid residues -7 to +7 of phK2

Chain of synthetic peptide, residues 210-236 of hK2 (peptide #1 of FIG. 16) (chain, as listed by the source): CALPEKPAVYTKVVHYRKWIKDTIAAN

Row | Substance | peptide bond cleavage (RP-HPLC, N-terminal sequencing) [1] | conversion of pro to mature form (HIC-HPLC) [2] | conversion of pro to mature form (HIC-HPLC, N-terminal sequencing) [2] | peptide bond cleavage [3]
1 | hK2^v217 (mature hK2 polypeptide having an alanine to valine substitution at amino acid position 217) | trypsin-like cleavage at a 2:1 ratio over the chymotrypsin-like cleavage | no difference in the ratios of the two hK2 forms was detected even after 6 hours |  | 
2 | phK2^v217 (pro form of hK2 with valine at residue 217) | showed no amidolytic activity |  |  | 
3 | prostate-specific antigen protein, hK3 (PSA) | PSA cleaved the Y-R bond primarily |  |  | 
4 | trypsin |  |  | complete conversion of phK2^v217 to hK2^v217 | 
5 | wild type mature hK2 (prostate-specific glandular kallikrein protein) | its activity was exclusive for the trypsin-like site (R-K) | at a rate about 30× slower than trypsin |  | hK2 was able to cleave this peptide releasing the propeptide region
